Measured values as given in patent US20110190200A1 (INDIANA UNIVERSITY RESEARCH AND TECHNOLOGY, published 2011).
Like-named read-outs stand apart in the source and are kept apart here. Numbered stars: 1 amine (or outer) side, 2 acyl side, 3 side chain; on linkers, the order of the positions; unused ones are H or OH. Square brackets hold non-standard residues; d marks the D form. Side chains are listed from the residue outwards. Ends that are not written are not given here. * marks the point of attachment. γGlu = O=C(O)[C@H](CCC(=O)[*:2])N[*:1]; Palmitoyl = CCCCCCCCCCCCCCCC(=O)*; Met(O) = CS(=O)CC[C@H](N)C(=O)O; Myristoyl = CCCCCCCCCCCCCC(=O)*; Nle = CCCC[C@H](N)C(=O)O; Orn = NCCC[C@H](N)C(=O)O; Dab = NCC[C@H](N)C(=O)O; Dap = NC[C@H](N)C(=O)O; Aib = CC(C)(N)C(=O)O; Carbamoyl = NC(=O)*; Ahx = NCCCCCC(=O)O; βAla = NCCC(=O)O; Acm = CC(=O)NC*

Columns and labels:
Test in all cases: cell-based or functional assay
[1] = target: T1, glucagon receptor (human, UniProt P47871 26-477)
[2] = target: GLP-1 receptor (UniProt P43220 24-463, limits assumed)
[3] = target: T1, glucagon receptor; remark: listed apart in the source

T1 sequence (P47871 26-477): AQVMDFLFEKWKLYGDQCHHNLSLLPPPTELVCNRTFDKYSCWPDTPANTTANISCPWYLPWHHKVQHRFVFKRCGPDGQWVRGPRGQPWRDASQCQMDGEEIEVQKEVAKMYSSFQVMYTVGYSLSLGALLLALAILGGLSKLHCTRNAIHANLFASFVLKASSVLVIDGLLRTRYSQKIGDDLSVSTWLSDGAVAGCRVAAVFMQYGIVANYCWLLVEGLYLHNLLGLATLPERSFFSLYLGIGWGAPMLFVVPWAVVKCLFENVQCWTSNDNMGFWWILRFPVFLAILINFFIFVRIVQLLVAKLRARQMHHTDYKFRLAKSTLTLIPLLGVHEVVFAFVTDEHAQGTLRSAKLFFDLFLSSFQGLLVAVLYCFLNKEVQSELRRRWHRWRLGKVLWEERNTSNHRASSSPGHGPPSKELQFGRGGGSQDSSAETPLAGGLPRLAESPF

Binder	EC50 at Glucagon Receptor [1]	EC50 at GLP-1 Receptor [2]	% activity* [3]	EC50 at Glucagon Receptor [3]
H[Aib]QGTFTSDK(Myristoyl)SKYLD[Aib]RRAQDFVC(PEG 40 kDa)WLMNT-NH2 [Peptide 77* (Table 10)]	21.9 nM	1.46 nM		
H[Aib]QGTFTSDK([γGlu-γGlu-Myristoyl])SKYLD[Aib]RRAQDFVC(PEG 40 kDa)WLMNT-NH2 [Peptide 78* (Table 10)]	0.319 nM	0.103 nM		
H[Aib]QGTFTSDK(Palmitoyl)SKYLD[Aib]RRAQDFVQWLMNT-NH2 [Peptide 50 (Table 10)]	0.572 nM			
H[Aib]QGTFTSDK([Ahx-Palmitoyl])SKYLD[Aib]RRAQDFVQWLMNT-NH2 (N-terminus assumed; SMILES CCCCCCCCCCCCCCCC(=O)NCCCCCC(=O)NCCCC[C@H](NC(=O)[C@H](CC(=O)O)NC(=O)[C@H](CO)NC(=O)[C@@H](NC(=O)[C@H](Cc1ccccc1)NC(=O)[C@@H](NC(=O)CNC(=O)[C@H](CCC(N)=O)NC(=O)C(C)(C)NC(=O)[C@@H](N)Cc1c[nH]cn1)[C@@H](C)O)[C@@H](C)O)C(=O)N[C@@H](CO)C(=O)N[C@@H](CCCCN)C(=O)N[C@@H](Cc1ccc(O)cc1)C(=O)N[C@@H](CC(C)C)C(=O)N[C@@H](CC(=O)O)C(=O)NC(C)(C)C(=O)N[C@@H](CCCNC(=N)N)C(=O)N[C@@H](CCCNC(=N)N)C(=O)N[C@@H](C)C(=O)N[C@@H](CCC(N)=O)C(=O)N[C@@H](CC(=O)O)C(=O)N[C@@H](Cc1ccccc1)C(=O)N[C@H](C(=O)N[C@@H](CCC(N)=O)C(=O)N[C@@H](Cc1c[nH]c2ccccc12)C(=O)N[C@@H](CC(C)C)C(=O)N[C@@H](CCSC)C(=O)N[C@@H](CC(N)=O)C(=O)N[C@H](C(N)=O)[C@@H](C)O)C(C)C) [Peptide 85 (Table 10)]	0.01 nM	0.005 nM		
HS[Dap](Carbamoyl)GTFTSDYSKYLDTRRAAEFVAWL[Nle]DE [Peptide J backbone, Dap(urea) at position 3]			13%	0.48 nM
HSQGTFTSDYSKYLDTRRAAEFVAWL[Nle]DE [Peptide J backbone, Q at position 3]			25%	
HS[Dab](Ac)GTFTSDYSKYLDTRRAAEFVAWL[Nle]DE [Peptide J backbone, Dab(Ac) at position 3]			19%	0.31 nM
H[Aib]QGTFTSDK([Pro-Pro-Palmitoyl])SKYLD[Aib]RRAQDFVQWLMNT-NH2 [Peptide 87 (Table 10)]	0.017 nM	0.009 nM		
H[Aib]QGTFTSDK([Ala-Ala-Myristoyl])SKYLD[Aib]RRAQDFVC(PEG 40 kDa)WLMNT-NH2 [Peptide 81* (Table 10)]	0.597 nM	0.271 nM		

The next lines start with the values.

EC50 at Glucagon Receptor [1]	EC50 at GLP-1 Receptor [2]	% activity* [3]	EC50 at Glucagon Receptor [3]	Binder
0.024 nM	0.108 nM			H[Aib]QGTFTSDK([Ala-Ala-Palmitoyl])SKYLD[Aib]RRAQDFVQWLMNT-NH2 [Peptide 82 (Table 10)]
		7%	0.91 nM	HS[Met(O)]GTFTSDYSKYLDTRRAAEFVAWL[Nle]DE [Peptide J backbone, M(O) at position 3]
	0.006 nM			H[Aib]QGTFTSDK([Leu-Leu-Palmitoyl])SKYLD[Aib]RRAQDFVQWLMNT-NH2 (N-terminus assumed; SMILES CCCCCCCCCCCCCCCC(=O)N[C@@H](CC(C)C)C(=O)N[C@@H](CC(C)C)C(=O)NCCCC[C@H](NC(=O)[C@H](CC(=O)O)NC(=O)[C@H](CO)NC(=O)[C@@H](NC(=O)[C@H](Cc1ccccc1)NC(=O)[C@@H](NC(=O)CNC(=O)[C@H](CCC(N)=O)NC(=O)C(C)(C)NC(=O)[C@@H](N)Cc1c[nH]cn1)[C@@H](C)O)[C@@H](C)O)C(=O)N[C@@H](CO)C(=O)N[C@@H](CCCCN)C(=O)N[C@@H](Cc1ccc(O)cc1)C(=O)N[C@@H](CC(C)C)C(=O)N[C@@H](CC(=O)O)C(=O)NC(C)(C)C(=O)N[C@@H](CCCNC(=N)N)C(=O)N[C@@H](CCCNC(=N)N)C(=O)N[C@@H](C)C(=O)N[C@@H](CCC(N)=O)C(=O)N[C@@H](CC(=O)O)C(=O)N[C@@H](Cc1ccccc1)C(=O)N[C@H](C(=O)N[C@@H](CCC(N)=O)C(=O)N[C@@H](Cc1c[nH]c2ccccc12)C(=O)N[C@@H](CC(C)C)C(=O)N[C@@H](CCSC)C(=O)N[C@@H](CC(N)=O)C(=O)N[C@H](C(N)=O)[C@@H](C)O)C(C)C) [Peptide 86 (Table 10)]
		86%	0.07 nM	HS[Dab](Ac)GTFTSDYSKYLD[Aib]RRAADFVAWLMDE [Peptide K backbone, Dab(Ac) at position 3]
		7%	0.92 nM	HS[Orn](Ac)GTFTSDYSKYLDTRRAAEFVAWL[Nle]DE [Peptide J backbone, Orn(Ac) at position 3]
		15%		HSQGTFTSDYSKYLD[Aib]RRAADFVAWLMDE [Peptide K backbone, Q at position 3]
	0.043 nM			H[Aib]QGTFTSDK([γGlu-γGlu-Palmitoyl])SKYLD[Aib]RRAQDFVQWLMNT-NH2 [Peptide 83 (Table 10)]
		33%		HSC(Acm)GTFTSDYSKYLDTRRAAEFVAWL[Nle]DE [Peptide J backbone, C(Acm) at position 3]
	0.004 nM			H[Aib]QGTFTSDK([βAla-βAla-Palmitoyl])SKYLD[Aib]RRAQDFVQWLMNT-NH2 (N-terminus assumed; SMILES CCCCCCCCCCCCCCCC(=O)NCCC(=O)NCCC(=O)NCCCC[C@H](NC(=O)[C@H](CC(=O)O)NC(=O)[C@H](CO)NC(=O)[C@@H](NC(=O)[C@H](Cc1ccccc1)NC(=O)[C@@H](NC(=O)CNC(=O)[C@H](CCC(N)=O)NC(=O)C(C)(C)NC(=O)[C@@H](N)Cc1c[nH]cn1)[C@@H](C)O)[C@@H](C)O)C(=O)N[C@@H](CO)C(=O)N[C@@H](CCCCN)C(=O)N[C@@H](Cc1ccc(O)cc1)C(=O)N[C@@H](CC(C)C)C(=O)N[C@@H](CC(=O)O)C(=O)NC(C)(C)C(=O)N[C@@H](CCCNC(=N)N)C(=O)N[C@@H](CCCNC(=N)N)C(=O)N[C@@H](C)C(=O)N[C@@H](CCC(N)=O)C(=O)N[C@@H](CC(=O)O)C(=O)N[C@@H](Cc1ccccc1)C(=O)N[C@H](C(=O)N[C@@H](CCC(N)=O)C(=O)N[C@@H](Cc1c[nH]c2ccccc12)C(=O)N[C@@H](CC(C)C)C(=O)N[C@@H](CCSC)C(=O)N[C@@H](CC(N)=O)C(=O)N[C@H](C(N)=O)[C@@H](C)O)C(C)C) [Peptide 84 (Table 10)]
